In the DeepSol protein solubility set:

experiment: soluble on expression in E. coli; label from the status in PepcDB or PDB records

Soluble on expression in E. coli, not soluble:
MFDVDIKFGDVYVRNIEEKDIGELKEILKDKKFYLNDEELKEIFLEYYMSECEFFTKILKKGKFVGVFRGRIEFKSSNMAWISYFYVDERYSSYKDSQDILMNILEYFSESFGVTDFITGVTNSEKDMIELWENNDFKTVRINKEFYSDRGYKEDLVIMKKYSAI
MTSPASCSPPNEKRTGSPFPPESRSLPSTMEMTMNTIFRPAPHPLPDAPFYTPLGNECVLFESAWVRQLPLLLKGPTGCGKTRFVSHMAAKLGLPLSTISCHDDLAAADLTGRYLLKGGETVWMDGPLTRSVRQGGICYLDEIVEARKDVAVVLHPLTDDRRILPLERTGEVLEAPSGFMLVVSYNPGYQNLLKSLKPSTRQRFVAIEFDFLPKEQEIAVVSHESGLDARDVEPLVDLAHRLRGLKGHDLEEGVSTRLLVYCASLIDTGLPARQAVRATMIEPLTDEPDVKAALHEVADAIIRLEHHHHHH
NSGQSGAESDIRRKSEEIAAHSNEPSAEKPKEEKKWYDRIGIRGYTQFRYSSTVSGDKDAVSYWPDKSVGEDGSFLIRRARLVIFGDINDHLSLYIQPDFASTPSGSSTGHFAQLRDAYADIHFDKNKEFRVRVGQSKIPYSFENLQSSQNRLALDRNDAMNSCCRDERDIGAFFYWAPTHIRDRFKEVMAKNLKGSGDYGMFAFGIYNGQGANRLEGNNGVHMVTRFTYPHQFSNGQILEAGIQALRGRFVPSTGPAGGFTPVMDAPEKGFKDERVGVHAVLYPQPFGLQAEWNWGRGPQLNDGQTMLTESSLNGGYVLATYKIDGLRWGTLFPFVKWQHFKGGQKFERNAPRNHVNDLEFGLEWQVMKEIELTAVYHMMNRTNVASAPYERYKADVLRFQLQWNY
MGHHHHHHSHMHTPEVASPSPGDRCREKSSPRPQTRFPSWHRVGDGWRVSIGTARSGCCQVGPCQGSSPLSTLCLAVPAPRYSNMACTQQSGGTTMVTADAPRLCLVNVAEQNGRLDPEEGPLSWHLSLAT
MQDKYGVNHDHYCYESSDVLINLLNIRDPDELTQAEADFNLIRYSEYCSDLDELEDFDSNHFLNLHWVLFQDIYEWAGTIRDVDISKANTRFCTCSRVEPELNKAISRIPLIRFCRNKHELVALVADIFSDLNVVHPFREGNGRTTRFFFEELLHVAGYRIEWPVITKEEWVDANIHGYFGQLHKLEVIFDAAIIESLEHHHHHH
MAISVFDLFSIGIGPSSSHTVGPMRAARMFARRLRNEELLDSVASVRVELYGSLGATGHGHGTPKAVLLGLEGDSPRTVDVESADDRVETIKSSGRISLLGDHEIAFAYDDDMVLHRRKALPYHANGMTLWAYDAEGAEVLTKTYYSVGGGFVVDEDAVGADRIVLDDTVLKYPFRTGDELLRLARETGLSISALMLENERAWRDEDEIREGLLEIWRVMRACVDRGMTREGILPGGLKVRRRAANTARKLRSEGDPQALAMEWITLYAMAVNEENAAGGRVVTAPTNGAAGIIPAVLHYYMNFVPGADEDGVVRFLLAAGAIGMLFKENASISGAEVGCQGEVGSACSMAAGALAEVLGGSPEQVENAAEIGMEHNLGLTCDPVGGLVQIPCIERNGMAAVKAVTAARMAMRGDGSHKVSLDKVIKTMKETGADMSVKYKETARGGLAVNIIEC
MFAIAHNSILRDSLAGILQLSPERVFDEYRPPPFTGNIVVGVEDLRDANLRFAVRYFLANVEKSISLFIVKQEWSENDEKFFDDLVKTEYRRAHDLNQVAIDRVNKLPDNEWKSDRLEQLNEWRTIPAINYSLLTLNDNLKNQIDALAKVTPCTISDDEEQITNKPPVLHWTADPLEGEIQFIAQLNFPLSGPDDSSFREICRLLKPHFETSYEWTGGILLTSDPVRLHVQRFNDTQIELAARICVDELEGDEADRPIRFIWPYLAVSLKQALQVLGEHPHLQYSISFVPFGSIFFKSSEIEARVFDATVFCSTALKYDKVGFRVGEDVHHVDIAHIFPDGTYPSLSRLLSMNPPSPRFSRPESVNDSVSPSLMSEPPTPGGLVAPHNRGRRVSFGTIKLMSDGPTTPEIPILNGNSNDGSAKTVDAFIDKMLQQTMDQLAV
MGSDKIHHHHHHMLMSVTTENAPVQGQTTLQENSAGEGVYASLFEKINLTPASCLGDINDFLDDAALSEAPAAERLTAAMQVFMERIRQSGQRVEKLDKTLIDHHIAELDFQISRQLDAVMHHQEFQQVESLWRGLKQLVDNTDYRQNVKTEILDVAKDDLRQDFEDAPELIQSGLYWHTYTAEYDTPGGEPIGSVISAYEFDASPQDVALLRNISRVSAAAHMPFIGAVGPAFFLKETMEEVAAIKDIGNYFDRAEYIRWKAFRETDDARYIGLVMPRVLGRLPYGPDTVPVRSFNYVEQVKGPDHEKYLWTSAAFSFASNMVKSFVNNGWCVQIRGPQAGGAVKDLPIHLYDLGTGNQVKIPSEVMIPETREFEFASLGFIPLSYYKNRDYACFFSANSAQKPALYDTADATANSRINARLPYIFLLSRIAHYLKMIQRENIGTTKDRRLLELELNTWVRSLVTEMTDPGDELQASHPLRDASVVVEDIEDNPGFFRVKLYAVPHFQVEGMDVNLSLVSQMPKAKA
RNQVEHEAKVSLAKSFGAGIAHEMRNPLSGLCTSIDVIQSVLPNKKAMGEKDQYVMSGEDVTLLREVSEDAMNIIHSGNETIDLLLTSIDENRVSRSSFKRYSAQSVVEKAIESFSYKRSTDRFAISFDARSEFDFLGSDTLLKYVMYNLFKNAFHHRSSDEFHIHVSMQSNDTANQIVVTDNGSGIAPDVIRHIFQDFYTTGKSGSYGLGLPFCKKVMRSFGGNIKCISQPGEWSQFTLTFPPITSDTVTEIKDELTKMKSILLVSNQDIIVQKMADISRFMGFDVTVLDVKSVFKKKEYEFEFDLIFVDVESLDVLENQLDRIESLLSFTEARVVYLFEHKPAQRAKKVGHDPIWVETQAWLLNTKATIERLLYDSTYISSTLPSAPL
MYNDELIESSKIKWQLFLKGDDDAYAWLYSRYVQQLYQYGCRFTTDTEMVKDCVQDVFVNVYRQKDRYSSPPDNVKIYLMSSLRNSIFNVFNKGNLHDTYISNINYEFDLSVEEKLIETEDETSQKHTVAHLLNTLSPRQREIIYYRFFEGLDYSAICELMGLNYQSAYNLLQRSLSRLREMYGILPFFFLF

Soluble on expression in E. coli, soluble:
AIANDDRATAFNALKNKTVCVQGDGNSRQFYHALVEILSNHSSAIPVNKNGNDFCNAPFAQCPQDTYYFDLVDKSDNLSVKLYWRWAPEFSDIECPMKVPSGFTPGSNYSFPSGPDTLSCDINIMDAGQWELFEKDANVTTAGYSQGVSNLSKCFSSDKSAKYFWIAAYALTPEQLQIHLPYNNTDVERINEVATQGLNSTACVLNGYDVTVNAFNDTKEATTDGIHYLGWINEQVVHLFFNAVTNSSAPTVPSSNVSVTSPNVQLGQVPNLNPSTTNSFLPVQTIVTVPSSSATSASSGLNFGGSSQGGGSGIPQL
MAKKTSSKGKLPPGPTPFPIIGNILQIDAKDISKSLTKFSECYGPVFTVYLGMKPTVVLHGYEAVKEALVDLGEEFAGRGSVPILEKVSKGLGIAFSNAKTWKEMRRFSLMTLRNFGMGKRSIEDRIQEEARCLVEELRKTNASPCDPTFILGCAPCNVICSVIFHNRFDYKDEEFLKLMESLHENVELLGTPWLQVYNNFPALLDYFPGIHKTLLKNADYIKNFIMEKVKEHQKLLDVNNPRDFIDCFLIKMEQENNLEFTLESLVIAVSDLFGAGTETTSTTLRYSLLLLLKHPEVAARVQEEIERVIGRHRSPCMQDRSRMPYTDAVIHEIQRFIDLLPTNLPHAVTRDVRFRNYFIPKGTDIITSLTSVLHDEKAFPNPKVFDPGHFLDESGNFKKSDYFMPFSAGKRMCVGEGLARMELFLFLTSILQNFKLQSLVEPKDLDITAVVNGFVSVPPSYQLCFIPIHHHH
MSLTNPAPIEAPLPKGVTDFLPEKADKIGYIEGKIRRVFELWGFRRIITPLLEFQDVMAAGLGEDLKERTFRFDDRQTGKLLAIPSDITPQVARIVATRMRGCPLPHRLYYIGRVLRHVELQSGRSRETFQAGVELIGLDSPEADAEMVAMAVEILKGLGFEEFKVDLGHTGFIRGVMAASGLGGDARRRLQEAVGKKDSSAVRAILETEPVADRIKEELAALPRLFGGREVLAEAARVATSDSSRRALDNIAQVLDILDIHGVSDHLTLDLGEIRGLDYHSGLTFEGFVTGIGEAVCSGGRYDNLTQRYGYPAPATGFAFNILALLNALEKRPDVEASKTRDLLIFNLKDDRREALEIAQHLRALGYSTARDIIHRDFNDSLDYARRMNILRMMVIGGDYCAADEAYVVRVADKRGTAVKKADLMRNDFSLNTEGHHHHHH
